Measurements reported in article PMC8795569.

Biological target: HA-APP (full-length, APP695 spliced isoform), P05067
Test: ELISA

B1: MDGA1-Fc (MDGA1 extracellular domains fused to human Fc) (Fc fusion)
chain: QGVYAPAQAQIVHAGQACVVKEDNISERVYTIRESDTLVLQCLVTGHPRPQVRWTKTAGSASDKFQETSVFNETLRIERIARTQGGRYYCKAENGVGVPAIKSIRVDVQYLDEPVLTVHQTVSDVRGNFYQEKTVFLRCTVSSNPPARFIWKRGSDTLSHSQDNGVDIYEPLYTQGETKVLKLKNLRPQDYASYTCQVSVRNVCGIPDKSITFQLTNTTAPPTLKLSVNETLVVNPGENVTVQCLLTGGDPLPQLHWSHGPGPLPLGALAQGGTLSIPSVQARDSGYYNCTATNNVGNPAKKTVNLLVRSLKNATFQITPDMIKESENIQLGQDLKLSCHVDAVPQEKVNYQWFKNGKPARTSKRLLVTRNDPELPAVTSSLELIDLHFSDYGTYLCVASFPGSPVPDLSVEVNISSETVPPTISVPKGRAVVTVREGSPAELQCEVRGKPRPPVLWSRVDKEAALLPSGLALEETPDGKLRVERVSREMSGTYRCQTARYNGFNVRAREAQVQLTVHFPPEVEPSSQDVRQALGRPVLLRCSLLRGSPQRIASAVWRFKGQLLPPPPVLPAAAAEGPDHAELRLDALTRDSSGNYECSVSNDVGSATCLFQVSAKAYSPEFYFDTPNPTRSHKLSKNYSYVLQWTQREPDAVDPVLNYRLSIRQLNQHNAMVKAIPVRRVEKGQLLEYTLTDLRVPHSYEIHLTPYTTFGAGDMASRVIHYTEPINSPSLSDNTCHFEDEKICGYTQDLTDNFDWTRQNALTQNPKRSPNTGPPTDISGTPEGYYMFIETSRPRELGDRARLVSPLYNASAKFYCVSFFYHMYGKHIGSLNLLVRSRNKGTLDTHAWSLSGNKGNVWQQAHVPINPSGPFQIIFEGVRGSGYLGDIAIDDVTLKKGECPRRQMDPNKVVVMPGS
modifications: not checked
With B1 the Kd was 84.7 nM.
